# Results reported in patent US20230250177A1 (INTERVET, published 2023).
# T1: canine IL-22 with a C-terminal HIS tag (canine)
# T1 construct: Recombinant, made in HEK-293 or CHO cells; coated on the ELISA plate; also called cIL-22-His; canine IL-22-HIS
# T1 chain: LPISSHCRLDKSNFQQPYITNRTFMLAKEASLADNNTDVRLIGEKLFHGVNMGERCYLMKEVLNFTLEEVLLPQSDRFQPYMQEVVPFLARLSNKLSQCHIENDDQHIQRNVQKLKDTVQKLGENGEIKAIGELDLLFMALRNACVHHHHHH
# How the values were obtained:
# [1] = target: biotinylated canine IL-31 (canine); test: ELISA: IL-31RA coated at 10 µg/mL, biotinylated IL-31 titrated 3-fold from 10 µg/mL, HRP-streptavidin
# [2] = target: T1, canine IL-22 with a C-terminal HIS tag; test: ELISA: cIL-22-His coated at 1 µg/mL, Fezakinumab titrated from 5 µg/mL, anti-human IgG Fc-HRP
# Experimental: The binding of canine IL-22 HIS to the anti-IL-22 antibody Fezakinumab was determined by ELISA as follows: […]
EC50 [1],binding result [2],Molecule
0.368 µg/mL,–,Canine IL-31RA ECD-10His (extracellular domain of canine IL-31 receptor alpha fused to a HIS tag)
–,binds,"Fezakinumab (human monoclonal anti-IL-22 antibody) (antibody, human IgG1, lambda, V domains shown, Full human heavy and light chains, marked PRIOR ART; made recombinantly in HEK-293 or CHO cells; also called Fezakinumab-mAb; Feza-mAb) VH: QVQLVQSGAEVKKPGASVKVSCKASGYTFTNYYMHWVRQAPGQGLEWVGWINPYTGSAFYAQKFRGRVTMTRDTSISTAYMELSRLRSDDTAVYYCAREPEKFDSDDSDVWGRGTLVTVSS VL: QAVLTQPPSVSGAPGQRVTISCTGSSSNIGAGYGVHWYQQLPGTAPKLLIYGDSNRPSGVPDRFSGSKSGTSASLAITGLQAEDEADYYCQSYDNSLSGYVFGGGTQLTVLG"
